Reference: patent publication US8093068 (Janssen / Centocor, dated 2012)

Target: T1, soluble human TLR3 extracellular domain (human, UniProt O15455 24-704)
T1 construct: extracellular domain; Coated on the ELISA plate; also called hTLR3; extracellular domain of human TLR3
Assay: ELISA, soluble human TLR3 extracellular domain coated on plate, antibody titrated, anti-mouse IgG-HRP detection
Method: All 16 mAbs were assessed for binding to the extracellular domain of human TLR3 using an ELISA format as compared to the parental murine mAb C1068. Briefly, soluble human TLR3 extracellular domain was coated into the wells of a 96 well plate and candidate mAbs were incubated at various concentrations (10-3 to 103 ng/ml) and bound antibody was detected with rabbit anti-mouse IgG-HRP for murine IgG1 isotypes (Zymed, South San Francisco, Calif.) or HRP-labeled anti-human IgG (Jackson 109-036-088) for human IgG4 isotypes. $EC50$ values were determined and the screening results are shown in FIG. 9 and Table 2 below.

- EC50: 8 ng/mL
B1: murine anti-TLR3 mAb C1068 (antibody, V domains shown)
VH: QVQLQQPGAELVQPGTSVRLSCKASGYIFTTYWIHWVKQRPGQGLEWIGEINPNNGRINYNEKFKTKATLTVDKSSSTAYMQLSSLTSEDSAVYYCTRVGVMITTFPYWGQGTLVTVSA
VL: DIQMTQSPASLSASVGETVTITCRASGNIHNYLAWYQQKQGKSPQLLVYNAKTLADGVPSRFSGSESGTQYSLKINSLQPEDFGSYYCQHFWSTPFTFGSGTKLELK
notes: The ELISA text implies a murine IgG1 isotype (detected with anti-mouse IgG-HRP for murine IgG1 isotypes); also called parental murine mAb C1068
